Here are results for one substance from paper PMC4582940.

The target of assay [1] is c-Met recombinant chimera (R&D Systems) (UniProt P08581). Kind of assay: SPR; c-Met chimera amine-coupled to a CM5 chip (200-1000 RU), Biacore 2000, 25 °C, HBS-EP pH 7.4, 5 uL/min; CSF diluted 1:1 in PBS flowed over; samples: septic community-acquired meningitis (n = 22).
Assay [2] has the same target. As to the kind of experiment: SPR; c-Met chimera amine-coupled to a CM5 chip (200-1000 RU), Biacore 2000, 25 °C, HBS-EP pH 7.4, 5 uL/min; CSF diluted 1:1 in PBS flowed over; samples: septic nosocomial meningitis (n = 33). In general terms: SPR reads the build-up and loss of mass on a sensor chip optically.

Sequence of UniProt P08581 (P08581 25-932, change not shown): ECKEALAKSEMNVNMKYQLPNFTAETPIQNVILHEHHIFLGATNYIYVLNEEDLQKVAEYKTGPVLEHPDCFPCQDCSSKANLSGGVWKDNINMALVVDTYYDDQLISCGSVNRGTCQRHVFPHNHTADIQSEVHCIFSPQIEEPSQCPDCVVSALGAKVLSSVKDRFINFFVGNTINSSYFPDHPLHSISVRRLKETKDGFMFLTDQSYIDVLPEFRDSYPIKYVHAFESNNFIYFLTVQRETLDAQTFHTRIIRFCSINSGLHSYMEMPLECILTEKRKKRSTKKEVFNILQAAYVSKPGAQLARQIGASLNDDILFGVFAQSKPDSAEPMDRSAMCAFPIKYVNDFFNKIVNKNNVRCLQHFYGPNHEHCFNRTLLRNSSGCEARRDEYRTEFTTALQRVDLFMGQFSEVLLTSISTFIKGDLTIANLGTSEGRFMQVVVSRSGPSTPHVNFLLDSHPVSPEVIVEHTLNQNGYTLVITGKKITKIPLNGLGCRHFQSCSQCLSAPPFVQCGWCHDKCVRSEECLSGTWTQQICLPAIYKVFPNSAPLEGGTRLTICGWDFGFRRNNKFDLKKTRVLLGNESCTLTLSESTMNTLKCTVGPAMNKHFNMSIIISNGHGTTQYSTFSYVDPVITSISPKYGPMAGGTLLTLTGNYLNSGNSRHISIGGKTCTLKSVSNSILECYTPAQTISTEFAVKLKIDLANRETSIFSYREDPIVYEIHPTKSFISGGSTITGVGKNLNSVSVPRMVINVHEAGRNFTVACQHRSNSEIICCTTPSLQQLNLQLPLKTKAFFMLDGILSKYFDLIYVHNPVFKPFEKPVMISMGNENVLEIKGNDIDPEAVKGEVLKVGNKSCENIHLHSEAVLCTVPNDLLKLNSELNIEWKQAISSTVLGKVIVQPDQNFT

Consider “Hepatocyte growth factor (CSF-derived) (ligand)”, for which the C-Met binding (RU), median of the group is 56 RU in assay [1] and 27.3 RU in assay [2].
